Laboratory results: patent US20110269817A1 (University of California, published 2011)

Target: Myc-tagged PER2 (transfected in JEG3 cells) (UniProt O54943 1-1257, limits assumed)
Assay: coimmunoprecipitation with FLAG antibody from cotransfected JEG3 cells, Western with anti-Myc (FIG. 5A)
Procedure: (A) JEG3 cells were cotransfected with a series of expression vectors as described. Flag-tagged SIRT1 proteins were immunoprecipitated by FLAG antibody, and abundance of coimmunoprecipitated proteins was determined by western blotting using anti-Myc antibody (top right panel) and anti-SIRT1 antibody (bottom right panel). Left panels show the immunoblotting results of total cell lysates as an input.

Myc-tagged PER2 (transfected in JEG3 cells), sequence (O54943 whole entry): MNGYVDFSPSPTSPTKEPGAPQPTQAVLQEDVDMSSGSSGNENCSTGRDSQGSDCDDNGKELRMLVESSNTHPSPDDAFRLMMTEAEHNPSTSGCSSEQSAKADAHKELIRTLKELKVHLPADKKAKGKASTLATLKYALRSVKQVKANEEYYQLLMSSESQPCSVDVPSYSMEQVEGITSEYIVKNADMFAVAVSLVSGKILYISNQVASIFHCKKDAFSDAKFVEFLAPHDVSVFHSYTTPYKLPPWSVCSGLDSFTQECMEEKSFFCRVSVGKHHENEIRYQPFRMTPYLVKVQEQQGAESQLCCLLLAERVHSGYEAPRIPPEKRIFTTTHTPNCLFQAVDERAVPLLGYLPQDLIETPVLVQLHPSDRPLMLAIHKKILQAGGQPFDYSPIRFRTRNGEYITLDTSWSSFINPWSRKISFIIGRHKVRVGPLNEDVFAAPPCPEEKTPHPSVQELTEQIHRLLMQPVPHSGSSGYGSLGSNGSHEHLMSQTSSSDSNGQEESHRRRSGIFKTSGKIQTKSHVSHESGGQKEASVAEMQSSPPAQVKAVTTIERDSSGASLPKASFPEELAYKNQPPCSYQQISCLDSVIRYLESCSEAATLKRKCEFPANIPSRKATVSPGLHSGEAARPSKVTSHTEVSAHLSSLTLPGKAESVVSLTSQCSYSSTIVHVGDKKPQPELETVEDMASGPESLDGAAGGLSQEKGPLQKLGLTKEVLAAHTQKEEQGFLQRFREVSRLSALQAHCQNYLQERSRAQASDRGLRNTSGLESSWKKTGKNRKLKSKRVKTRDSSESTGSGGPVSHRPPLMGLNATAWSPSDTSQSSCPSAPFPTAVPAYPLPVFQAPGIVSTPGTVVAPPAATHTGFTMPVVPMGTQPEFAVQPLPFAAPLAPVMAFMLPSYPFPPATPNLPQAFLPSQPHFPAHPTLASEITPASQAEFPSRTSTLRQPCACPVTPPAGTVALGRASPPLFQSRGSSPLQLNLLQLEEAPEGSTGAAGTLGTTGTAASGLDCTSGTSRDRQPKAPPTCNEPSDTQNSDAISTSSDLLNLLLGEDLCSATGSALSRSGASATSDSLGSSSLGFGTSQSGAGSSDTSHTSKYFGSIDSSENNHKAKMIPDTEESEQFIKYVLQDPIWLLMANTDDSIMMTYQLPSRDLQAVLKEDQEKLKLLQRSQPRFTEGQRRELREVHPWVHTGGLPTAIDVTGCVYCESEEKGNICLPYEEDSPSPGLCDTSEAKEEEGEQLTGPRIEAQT

binding result: no binding
B1: Flag-tagged SIRT1 (transfected in JEG3 cells) (enzyme, mouse, UniProt Q923E4 1-737, looked up, not shown: small tags and cut ends)
chain: MADEVALALQAAGSPSAAAAMEAASQPADEPLRKRPRRDGPGLGRSPGEPSAAVAPAAAGCEAASAAAPAALWREAAGAAASAEREAPATAVAGDGDNGSGLRREPRAADDFDDDEGEEEDEAAAAAAAAAIGYRDNLLLTDGLLTNGFHSCESDDDDRTSHASSSDWTPRPRIGPYTFVQQHLMIGTDPRTILKDLLPETIPPPELDDMTLWQIVINILSEPPKRKKRKDINTIEDAVKLLQECKKIIVLTGAGVSVSCGIPDFRSRDGIYARLAVDFPDLPDPQAMFDIEYFRKDPRPFFKFAKEIYPGQFQPSLCHKFIALSDKEGKLLRNYTQNIDTLEQVAGIQRILQCHGSFATASCLICKYKVDCEAVRGDIFNQVVPRCPRCPADEPLAIMKPEIVFFGENLPEQFHRAMKYDKDEVDLLIVIGSSLKVRPVALIPSSIPHEVPQILINREPLPHLHFDVELLGDCDVIINELCHRLGGEYAKLCCNPVKLSEITEKPPRPQKELVHLSELPPTPLHISEDSSSPERTVPQDSSVIATLVDQATNNNVNDLEVSESSCVEEKPQEVQTSRNVENINVENPDFKAVGSSTADKNERTSVAETVRKCWPNRLAKEQISKRLEGNQYLFVPPNRYIFHGAEVYSDSEDDVLSSSSCGSNSDSGTCQSPSLEEPLEDESEIEEFYNGLEDDTERPECAGGSGFGADGGDQEVVNEAIATRQELTDVNYPSDKS
notes: The plasmid list holds a mouse N-terminal FLAG construct and also Flag-hSIRT1/pECE, so the species used in these experiments is not certain; also called Flag-SIRT1
